Data: patent US20240293570A1 (priority 2021, published 2024)
Like-named read-outs stand apart in the source and are kept apart here. *1 amine or outer side, *2 acyl side, *3 side chain or, on linkers, in order; H or OH if unused. Where a SMILES comes first, the peptide text is derived from it. [ ]: non-standard residue; d: D form. The star is where a group is joined. Exatecan = CC[C@@]1(O)C(=O)OCc2c1cc1n(c2=O)Cc2c-1nc1cc(F)c(C)c3c1c2[C@@H](N*)CC3; MaleimidoPEG4propanoyl = O=C1C=CC(=O)N1CCOCCOCCOCCOCCC(=O)*; X2 = CO[C@@H]([C@H]1CCCN1[*:1])[C@@H](C)C(=O)[*:2]; Propanoyl(3-maleimido) = O=C1C=CC(=O)N1CCC(=O)*; Dil = CC[C@H](C)[C@H](NC)[C@@H](CC(=O)O)OC; X1 = O=C(CN1CCOCCN([*:1])CCOCC1)[*:2]; PABC = O=C(OCc1ccc(N[*:1])cc1)[*:2]; NHCH2OCH2CO = O=C(COCN[*:1])[*:2]; X3 = C[C@@H](N*)[C@@H](O)c1ccccc1; NMeV = CN[C@H](C(=O)O)C(C)C

Experiments:
[1] = assay type: physicochemical; details: ADC with Her2 antibody, RP-HPLC-MS
Description: (§1) A drug-antibody conjugating ratio (also known as drug-antibody ratio, abbreviated as DAR) of the antibody-drug conjugate was tested using reversed-phase high-performance liquid chromatography-mass chromatography (RP-HPLC-MS). The ADC sample was diluted with 50 mmol/L Tris buffer (pH 8.0) to 1 mg/ml. A fresh dithiothreitol (DTT) stock solution was added to achieve a final DTT concentration of 50 mmol/L. Incubation was performed at 37° C. for 30 minutes. A PLRP-S chromatographic column (1000 Å pores, 2.1×50 mm, 5) μm) was used, and the column temperature was 70° C. The flow rate was 0.25 mL/min. […] of sample was injected; the mobile phase A was an aqueous solution of 0.1% formic acid (V/V) and 0.025% trifluoroacetic acid (V/V), and the mobile phase B was an acetonitrile solution of 0.1% formic acid (V/V) and 0.025% trifluoroacetic acid (V/V); the running time was 0-3 minutes, where 27% of mobile phase B ran for 3 minutes, and the mobile phase B ran from 27% to 49% within 3-25 minutes, from 49% to 95% within 25-26 minutes, at 95% within […], from 95% to 27% within 30-31.5 minutes, and at 27% for 31.5-45 minutes. […] Mass spectrometry drying gas was at a temperature of 350° C. and a flow rate of 7.0 L/min, the pressure of an atomizer was 40 psi, capillary voltage was positive 3000V and negative 3000V, and the mass range was 500-1600 m/z. The molecular weight of each mass spectrometry peak (ranging from 20000 to 70000) was calculated by deconvolution and compared with light and heavy chain molecular weights of un-conjugated antibodies to calculate a drug load at each peak, so as to determine the load of a corresponding ultraviolet peak. Area percentages of heavy and light chain ultraviolet peaks were calculated through integration, and a weighted average DAR of the antibody-drug conjugate was calculated by combining the area percentages with the drug load distribution of each peak.

[2] = Polymer (high molecular component) content of antibody-drug conjugates by SE-HPLC; assay type: physicochemical; details: ADC with Her2 antibody
Description: (§2) Polymers (high molecular components) of the antibody-drug conjugates were tested using molecular exclusion high-performance liquid chromatography (SE-HPLC). A Biocore SEC chromatographic column (7.8×300 mm, […]) was used, and the mobile phase was 50 mM phosphate containing 300 mM sodium chloride (pH 6.8), with a flow rate of 0.5 mL/min. Samples of […] and 10 μl were injected. […] The polymer content of an antibody-drug conjugate was calculated using an area normalization method.

[3] = Naked antibody content of antibody-drug conjugates by hydrophobic interaction chromatography (HIC); assay type: physicochemical; details: ADC with Her2 antibody
Description: The content of naked antibodies in the antibody-drug conjugate was tested using hydrophobic interaction chromatography (HIC). A Biocore HIC-Butyl chromatographic column (4.6×150 mm, 5 μm) was used. The mobile phase A was a 100 mM phosphate aqueous solution containing 2 M ammonium sulfate (pH 7.0), and the mobile phase B was a 100 mM phosphate aqueous solution (pH 7.0): isopropanol=80:20 (V/V). Samples of 50 μg and 10 μl were injected. The mobile phase A at the flow rate of 1 mL/min ran at 100% for 3 minutes. Within 3-25 minutes, the mobile phase B ran from […] to 100%, while the mobile phase B decreased to 0% at 25.1 and ran to 30 minutes. […] The naked antibody content of the antibody-drug conjugate was calculated using an area normalization method based on the retention time of a naked antibody peak located by the antibody of the antibody-drug conjugate.

[4] = Stability (placement) test of ADCs at 40° C. in dark for 14 days, DAR and polymer content; assay type: physicochemical
Description: as §2, §1
Stability testing method: The stability of the obtained ADCs was tested for 14 days. The ADCs were placed at 40° C. in dark. Sampling points were days 0, 7, and 14. The polymer content and DAR value of samples at different sampling points were tested according to the method in Experimental Example 1.

[5] = Plasma stability of ADCs, generated payload by LC-MS/MS, mouse plasma; assay type: in vitro ADME, CD-1 mice; details: 37° C., 100 μg/mL, up to 21 d, FIG. 7-9
Description: (§3) In order to further evaluate the characteristics of ADCs, the plasma stability of ADCs was tested. The plasma stability was tested by the following steps:
(§4) A test sample stock solution was diluted with ultra-pure water into a working solution having a concentration of 2.5 mg/mL. The working solution was prepared as needed and used at room temperature.
(§5) Follow the following steps to test plasma samples: • (1) 980 μL of plasma was collected from blank CD-1 mice, monkeys, and humans (experimental group N=2, control group N=1) and pre-incubated at 37° C. for 5 minutes; • (2) 20 μL of test compound working solution (or positive control drug (payload) working solution) was added, followed by vortex mixing (final concentration of the test compound was 100 μg/mL, and final concentration of the positive control drug was 1 μM). 50 μL of plasma sample was immediately added into 150 μL of ice precipitant, followed by vortex mixing as a 0 h sample; • (3) The remaining plasma samples were sealed and further incubated at 37° C., and 50 μL of each plasma sample was pipetted into 150 μL of ice precipitant according to preset time points in Table 3, followed by vortex mixing; […]
(§6) The samples were analyzed using liquid chromatography-tandem mass spectrometry (LC-MS/MS) to measure the quantity of a generated payload, where the quantities of two payloads were measured for dual toxin ADCs respectively.

[6] = Plasma stability of ADCs, generated payload by LC-MS/MS, monkey plasma; assay type: in vitro ADME, monkeys; details: 37° C., 100 μg/mL, up to 21 d, FIG. 7-9
Description: as §3, §4, §5, §6

[7] = Plasma stability of ADCs, generated payload by LC-MS/MS, human plasma; assay type: in vitro ADME, humans; details: 37° C., 100 μg/mL, up to 21 d, FIG. 7-9
Description: as §3, §4, §5, §6

SMILES | DAR [1] | Polymer content (%) [2] [%] | Naked antibody content (%) [3] [%] | DAR ([4]; Day 0, 40° C. in dark) | Polymer content (%) ([4]; Day 0, 40° C. in dark) | DAR ([4]; Day 7, 40° C. in dark) | Polymer content (%) ([4]; Day 7, 40° C. in dark) | DAR ([4]; Day 14, 40° C. in dark) | Polymer content (%) ([4]; Day 14, 40° C. in dark) | stability in the plasma of mice [5] | stability in the plasma of monkeys [6] | stability in the plasma of humans [7]
C=C1C[C@@H]2CC[C@@]34C[C@H]5OC6C(O[C@H]7CC[C@H](CC(=O)C[C@@H]8[C@@H](OC)[C@@H](C[C@H](O)CNC(=O)CNC(=O)[C@H](Cc9ccccc9)NC(=O)CNC(=O)CNC(=O)CCOCCOCCN(CCOCCOCCC(=O)NCC(=O)NCC(=O)N[C@@H](Cc9ccccc9)C(=O)NCC(=O)NCOCC(=O)N[C@H]9CCc%10c(C)c(F)cc%11nc%12c(c9c%10%11)Cn9c-%12cc%10c(c9=O)COC(=O)[C@]%10(O)CC)C(=O)CN9CCOCCOCCOCCOCCN(C(=O)CCOCCOCCOCCOCCC%10C(=O)C=CC%10=O)CCOCCOCCOCCOCC9)O[C@H]8C[C@H]8O[C@@H](CC[C@@H]1O2)C[C@@H](C)C8=C)O[C@@H]7[C@@H]6O3)[C@H]5O4 [Example 13] | 4.02 | 0.77 | 5.02 | 4.02 | 0.77 | 4.02 | 0.78 | 4.04 | 0.91 | significantly better | significantly better | significantly better
CC[C@@]1(O)C(=O)OCc2c1cc1n(c2=O)Cc2c-1nc1cc(F)c(C)c3c1c2[C@@H](NC(=O)COCNC(=O)CNC(=O)[C@H](Cc1ccccc1)NC(=O)CNC(=O)CNC(=O)CN1CCOCCN(C(=O)CCN2C(=O)C=CC2=O)CCOCC1)CC3 [Example 22] ({Propanoyl(3-maleimido)}-[X1]GGFG[NHCH2OCH2CO]-Exatecan) | 4.14 | 0.76 | 0.00 | 4.14 | 0.76 | 4.12 | 0.81 | 4.15 | 0.78 | significantly better | significantly better | significantly better
C=C1C[C@@H]2CC[C@@]34C[C@H]5OC6C(C[C@H]7CC[C@H](CC(=O)C[C@@H]8[C@@H](OC)[C@@H](CC(O)CNC(=O)CNC(=O)[C@H](Cc9ccccc9)NC(=O)CNC(=O)CNC(=O)CN9CCN%10CCN(CCN(CC(=O)NCC(=O)NCC(=O)N[C@@H](Cc%11ccccc%11)C(=O)NCC(=O)NCOCC(=O)N[C@H]%11CCc%12c(C)c(F)cc%13nc%14c(c%11c%12%13)Cn%11c-%14cc%12c(c%11=O)COC(=O)[C@]%12(O)CC)CC9)CCN(C(=O)CCCCCN9C(=O)C=CC9=O)CC%10)O[C@H]8C[C@H]8O[C@@H](CC[C@@H]1O2)C[C@@H](C)C8=C)O[C@@H]7[C@@H]6O3)[C@H]5O4 (stereo partly drawn) [Example 59] | 3.83 | 1.18 | 2.57 | 3.83 | 1.18 | 3.83 | 1.22 | 3.78 | 1.27 | – | – | –
CCc1c2c(nc3ccc(O)cc13)-c1cc3c(c(=O)n1C2)COC(=O)[C@@]3(CC)OC(=O)N(C)CCN(C)C(=O)COCNC(=O)[C@H](CC(N)=O)NC(=O)[C@H](C)NC(=O)[C@H](C)NC(=O)CN1CCOCCN(C(=O)CCN2C(=O)C=CC2=O)CCOCC1 [Example 83] | 3.96 | 0.56 | 2.23 | 3.96 | 0.56 | 3.98 | 0.59 | 3.96 | 0.58 | – | – | –
CC[C@H](C)[C@@H]([C@@H](CC(=O)N1CCC[C@@H]1[C@H](OC)[C@@H](C)C(=O)N[C@H](C)[C@@H](O)c1ccccc1)OC)N(C)C(=O)[C@@H](NC(=O)[C@H](C(C)C)N(C)C(=O)OCc1ccc(NC(=O)CNC(=O)[C@H](Cc2ccccc2)NC(=O)CNC(=O)CNC(=O)CN2CCOCCN(C(=O)CCOCCOCCOCCOCCN3C(=O)C=CC3=O)CCOCC2)cc1)C(C)C [Example 85] (MaleimidoPEG4propanoyl-[X1]GGFG[PABC][NMeV]V[Dil][X2]-X3) | 4.04 | 1.43 | 1.98 | 4.04 | 1.43 | 4.08 | 1.48 | 4.00 | 1.45 | – | – | –
CC[C@H](C)[C@@H]([C@@H](CC(=O)N1CCC[C@@H]1[C@H](OC)[C@@H](C)C(=O)N[C@H](C)[C@@H](O)c1ccccc1)OC)N(C)C(=O)[C@@H](NC(=O)[C@H](C(C)C)N(C)C(=O)OCc1ccc(NC(=O)CNC(=O)[C@H](Cc2ccccc2)NC(=O)CNC(=O)CN2CCOCCN(C(=O)CCN3C(=O)C=CC3=O)CCOCC2)cc1)C(C)C [Example 86] ({Propanoyl(3-maleimido)}-[X1]GFG[PABC][NMeV]V[Dil][X2]-X3) | 4.20 | 0.97 | 3.45 | 4.20 | 0.97 | 4.23 | 0.99 | 4.16 | 1.11 | – | – | –
C=C1C[C@@H]2CC[C@@]34C[C@H]5OC6C(O[C@H]7CC[C@H](CC(=O)C[C@@H]8[C@@H](OC)[C@@H](C[C@H](O)CNC(=O)OCc9ccc(NC(=O)[C@H](CCCNC(N)=O)NC(=O)[C@@H](NC(=O)CN%10CCOCCN(C(=O)CCN%11C(=O)C=CC%11=O)CCOCC%10)C(C)C)cc9)O[C@H]8C[C@H]8O[C@@H](CC[C@@H]1O2)C[C@@H](C)C8=C)O[C@@H]7[C@@H]6O3)[C@H]5O4 [Example 87] | 3.85 | 1.12 | 2.11 | 3.85 | 1.12 | 3.87 | 1.15 | 3.81 | 1.24 | – | – | –
